Results as given in the RNAGym collection of RNA variant scans (doi:10.1073/pnas.2313332121).

B1: TPR t1 (parent)
chain: GACCAAUCUGCCCUCAGAGCUCGAGAACAUCUUCGGAUGCAGAGGAGGCAGGCUUCGGUGGCGCGAUAGCGCCAACGUCCUCAACCUCCAAUGCAUCCCACCACAUGAUGAUGCCUGAAGAGCCUUGGUUUUUUG

Variants of: B1
Test: polymerase ribozyme fitness, log enrichment relative to wild type (log ratio); higher = more active; in vitro selection for triplet polymerase activity
Method in brief: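 Each subunit of a heterodimeric triplet polymerase ribozyme was represented by a PCR-built, transcribed mutant library that underwent triplicate single-round in vitro selection with frozen incubation at −7 °C. Extended constructs were recovered by gel excision, streptavidin-bead capture and RT-PCR, and Illumina sequencing of input and output libraries kept genotypes with ≥10 input reads and ≥1 read per output. Fitness is the logarithm of genotype enrichment relative to wild-type enrichment, from inverse-variance-weighted replicate averages, with a logarithm base of 2.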

Variant | polymerase ribozyme fitness (log ratio)
GACCAAUCUGCCCUCAGAGCUCGAGAACAUCUUCGGAUGCAGAGGAGCCAGGCUUCGGUGGCGCGAUAGCGCCAACGUCCUCAACCUCCAAUGCAUCCCACCACAUGAUAAUGCCUGAAGAGCCUUGGUUUUUUG | -1.41
GACCAAUCUGCCCUCAGAGCUCGAGAACAUCUUCGGAUGCAGAGGAGUCAGGCUUCGGUGGCGCGAUAGCGCCAACGUGCUCAACCUCCAAUGCAUCCCACCACAUGAUGAUGCCUGAAGAGCCUUGGUUUUUUG | -3.52
GACCAAUCUGCCCUCAGAGCUCGAGAACAUCUUCGGAUGCAGAGGAGUCAGGUUUCGGUGGCGCGAUAGCGCCAACGUCCUCAACCUCCAACGCAUCCCUUCACAUGAUGAUGCCUGAAGAGCAUUGGUUGUUUG | -2.57
GACCAAUCUGCCCUCAGAGCUCGAGAACAUCUUCGGAUGCAGAGGAGUCAGGCUUCGGUGGCGCGAUAGCGCCAACGUCCUCAACCUCCAAUGCUUCCCACCACUUGAUGAUGCCUGAAGAGCCAUGGUUUUUUG | -4.37
GACCAAUCUGCCCUCAGAGCUCGAGAACAUCUUCGGAUGCAGAGGAGCCAGGCUUCGGUGGCGCGAUAGCGCCAACGUCCUCAACCACCAAUGCAUCCCACCACAUGAUGAUGCCUGAAGAGCCUUGGUUUUUUG | -1.01
GACCAAUCUGCCCUCAGAGCUCGAGAACAUCUUCGGAUGCAGAGGAGCCAGUCUUCGGUAGCGCGAUAGCGCCAACGUCCUCAACCUCCAAUGCAUCCCACCACAUGAAUAUGCCUGAAGAGCCUUGGUUUUUUG | -6.29
GACCAAUCUGCCCUCAGAGCUCGAGAACAUCUUCGGAUGCAGAGGAGCCAGGCUUCGGUAGCGCGAUAGCGCCAACGUCCUCAACCUCCAAUACAUCCCACCACAUGAUGAUGCCUGAAGAGCCUUGGUUUUUUG | -0.836
GACCAAUCUGCCCUCAGAGCUCGAGAACAUCUUCGGAUGCAGAGGAGCCAGGCUUCGGUGGCGCGAUAGCGCCAACUUCCUCAACCUCUAAUGCAUCCCACCACAUGAUGAUGCCUGAAGAGUCUUGGUUUUUUG | -0.348
GACCAAUCUGCCCUCAGAGCUCGAGAACAUCUUCGGAUGCAGAGGAGUCAGGCUUCGGUGGCGCGAUAGCGACAACGUCCUCAACCUCCAAUGCAUCCCACCACAUGAUGAUCCCUGAAGAGCCUUGGUUUUUUG | -2.2
GACCAAUCUGCCCUCAGAGCUCGAGAACAUCUUCGGAUGCAGAGGAGCCAGGCUUCGGUGGCGCGAUAGCGCCAACGUCCUCAAACUCCAAUGCAUCCCACCACAUGAUGAUGCCUGAAGAGCCUUGGUUUUUUG | -2.11
GACCAAUCUGCCCUCAGAGCUCGAGAACAUCUUCGGAUGCAGAGGAGUCAGGCUUCGGUGGCGCGAUAGCGCCUACGUCCUCAACCUCCAAUGCAUCCCACCACAUGAUGAUGCCUGAAGAGCCUUGGUUUUUUG | -0.741
GACCAAUCUGCCCUCAGAGCUCGAGAACAUCUUCGGAUGCAGAGGAGCCAGGCUUCGGCGGCGCGAUAGCGCCAACGUCCUCCACCUCCAAUGCAUCCCACCACAUGAUGAUGACUGAAGAGCCUUGGUUUUUUG | -2.11
GACCAAUCUGCCCUCAGAGCUCGAGAACAUCUUCGGAUGCAGAGGAGUCAGGCUUUGGUGGCGCGAUAGUGCCAACGUCCUCAGCCUCCAUUGCAUCCCACCACAUGAUGAUGCCUGAAGAGCCUUGGUUUUUUG | -4.84
GACCAAUCUGCCCUCAGAGCUCGAGAACAUCUUCGGAUGCAGAGGAGCCAGGCUUCGGUGGCGCGAUAGCGCCAACGUCCUCAACCUCCAAUACAUCCAACCACAUGAUGAUCCCUGAAGAGCCUUGGUUUUUUG | -7.38
GACCAAUCUGCCCUCAGAGCUCGAGAACAUCUUCGGAUGCAGAGGAGUCAGGCUUCGGUGGCGCGAUAGCGCGAACGUCCUCAACCUCCAAUGCGUCCCACCACAUGAUGAUGCCUGAAGAGCCUUGGUUUUUUG | -1.55
GACCAAUCUGCCCUCAGAGCUCGAGAACAUCUUCGGAUGCAGAGGAGCCAGGCUUCGGUGCCGCGAUAGCGCCAACGUCCUCAACCUCCAAUGCAUCCCACCACAUGAUGAUGCCUGAAGAGGCUUGGUUUUUUG | -0.406
GACCAAUCUGCCCUCAGAGCUCGAGAACAUCUUCGGAUGCAGAGGAGUUAGGCUUCGGUCGCGCGAUAGCGCCAACGUCCUCAUCCUCCAAUGCAUCCCACCACAUGAUGAUGCCUGAAGAGCCUUGGAUUUUGG | -1.92
GACCAAUCUGCCCUCAGAGCUCGAGAACAUCUUCGGAUGCAGAGGAGCCAGGCUUCGGUGGCGCGAUAGCGCCAACGUCCUCAACCUCCAAUGCAUCCCAACACAUGAUGAUGCCUAAAGAGCCUUGGUUUUUUG | -2.54
GACCAAUCUGCCCUCAGAGCUCGAGAACAUCUUCGGAUGCAGAGGAGCCAGGCUUCGGUGGCGCGAUAGCUCCAACGUCCUCAACCUCCAAUGCAUCCCACCACAUGAUGAUGCCUGAAGAGCCUUGGUUUUUUG | -2.47
GACCAAUCUGCCCUCAGAGCUCGAGAACAUCUUCGGAUGCAGAGGAGCCAGGCUUCGGUGGCGCGAUAGCACCAACGUCCUCAACCUCCAAUGCAUCCCACCACAUGAUGAUGCCUGAAGAGCCUUGGUUUUUUG | -1.65
GACCAAUCUGCCCUCAGAGCUCGAGAACAUCUUCGGAUGCAGAGGAGUCAGGCUUCGGUGGCGCGAUAGCGCUAACGUCCUCAACCUCCAAUGCAUCCCACCACAUGAUGAUGCCUGAAGAGCCUUGGUUUUUUG | -1.06

Variant | polymerase ribozyme fitness (log ratio)
GACCAAUCUGCCCUCAGAGCUCGAGAACAUCUUCGGAUGCAGAGGAGUCAGGCUUCGGUGGCGCGAUAGCGUCAAUGUCCUCAACCUCCAAUGCAUCCCACCACUUGAUGAUGCCUGAAGAGCCUUGGUUUUUUG | -3.61
GACCAAUCUGCCCUCAGAGCUCGAGAACAUCUUCGGAUGCAGAGGAGCCAGGCUUCGGUGGCACGAUAGCGCCAACGUCCUCAACCUCCAAUGCAUCCCACCACAUGAUGAUUCCUGAAGAGACUUGGUUUUUUG | -5.64
GACCAAUCUGCCCUCAGAGCUCGAGAACAUCUUCGGAUGCAGAGGAGUCAGGCUUAGGUGGCGCGAUAGCGCCAACGUCCUCAACCUCCAAUGCAUCCCACCACAUGAUGAUGCCUGAAGAGCCUUGGUUUUUUG | -1.75
GACCAAUCUGCCCUCAGAGCUCGAGAACAUCUUCGGAUGCAGAGGAGUCAGGCUUUGGUGGCGCGAUAGCGCCAACGUCCUCAACCUCCAAUGCAUCCCACCACAUGAUGAUGCCUGAAGAGCCUUGGUUUUUUG | -0.606
GACCAAUCUGCCCUCAGAGCUCGAGAACAUCUUCGGAUGCAGAGGAGUCAGGCUUCGGUGGCGCGAUAGCGGCAACGUCCUCAACAUCCAAUGCAUCCCACCACAUGAUGAUGCCUGAAGAGCCGUCGUUUUUUG | -4.47
GACCAAUCUGCCCUCAGAGCUCGAGAACAUCUUCGGAUGCAGAGGAGUCAGGCUUCGGUGGCGCGAUAGCGACAACGUCCUCAACCUCCAAUGCAUGCCACCACAUGAUGAUGCCUGAAGAGCCUUGGUUUUUUG | -5.25
GACCAAUCUGCCCUCAGAGCUCGAGAACAUCUUCGGAUGCAGAGGAGUCAGGCUUCGGUGGCGCGAUAGCGCCAACGUCCUCAGCCUCCAAUGCAUCCCACCACAUGAUGAUGCCCGAAGAGCCUUGGUUUUUUG | -1.79
GACCAAUCUGCCCUCAGAGCUCGAGAACAUCUUCGGAUGCAGAGGAGUCAGGCUUCGGUGGCGCGAUAGUGCCAACGUCCUCAACCUCCAAUGCAUCCCACCACAUGAUGAUGCCUGAAGAGCCUUGGUUUUUUG | -1.39
GACCAAUCUGCCCUCAGAGCUCGAGAACAUCUUCGGAUGCAGAGGAGUCAGGCUUCGGUGGCGCGAUAGAGCCAACGUCCUCAACCUCCAAUGCAUCCCACCACAUGAUGAUGCCUGAAGAGCCUUGGUUUUUUG | -2.08
GACCAAUCUGCCCUCAGAGCUCGAGAACAUCUUCGGAUGCAGAGGAGUCAGGCUUCGGUGGCGCGAUAGGGCCAACGUCCUCAACCUCCAAUGCAUCCCACCACAUGAUGAUGCCUGAAGAGCCUUGGUUUUUUG | -4.24
GACCAAUCUGCCCUCAGAGCUCGAGAACAUCUUCGGAUGCAGAGGAGUUAGGCUUCGGUGGCGCGAUAGCGCCAACGUCCUCAACCUCCACUGCAUCCCACCACAUGAUGAUGCCUGAAGAGCCUUGGUUUUUUG | -2.49
GACCAAUCUGCCCUCAGAGCUCGAGAACAUCUUCGGAUGCAGAGGAGCCAGGCUUCGGUGGCGCGAUAGCGCCAACGUCCUCAACCUCCAAUGCAUCCCACCAUAUGAUGAUGCCUGAAGAGCCUUGGUUUUUUG | -0.793
GACCAAUCUGCCCUCAGAGCUCGAGAACAUCUUCGGAUGCAGAGGAGUAAGGCUUCGGUGGCGCGAUAGCGCCAACGUCCUCAACCUCGAAUGCAUCCCACCACAUGAUGAUGCCUGAAGAGCCUUGGUUUUUUG | -3.48
GACCAAUCUGCCCUCAGAGCUCGAGAACAUCUUCGGAUGCAGAGGAGCCAGGCUUCGGUGGCGCGAUAGCGCCAACGUCCUCAACCUCCAAUGCAUGCCACCACAUGAUGAUGCCUGAAGAGCCUUGGUUUUUUG | -4.14
GACCAAUCUGCCCUCAGAGCUCGAGAACAUCUUCGGAUGCAGAGGAGUCAGGCUUGGGUGGCGCGAUAGCGUCAACGUCCUCAACGUCCAAUGCAUCCCACCACAUGAUGAUGCCUGAAGAGCCUUGGUUUUUUG | -2.89
GACCAAUCUGCCCUCAGAGCUCGAGAACAUCUUCGGAUGCAGAGGAGUCAGGUUUCGGUGGCGCGAUAGCGCCAACGUCCUCAACCUCCAAUCCAUCCCACCACAUGAUGAUGCCUGAAGAGCCUUGGUUUUUUG | -1.66
GACCAAUCUGCCCUCAGAGCUCGAGAACAUCUUCGGAUGCAGAGGAGCCAGGCUUCGGUGCCGCGAUAGCGCCAACGUCCUCAACCUCCAAUGCAUCCCACCACAUGAUGAUGCCUGAAGAGCCUUGGUUUUUUG | -2.06
GACCAAUCUGCCCUCAGAGCUCGAGAACAUCUUCGGAUGCAGAGGAGCCAGGCUUCGGUGGCGCGAUAGCGCCAACGUCCUCAACCUCCAAUGCAUCCCACCACAUGAUGAUGCCUGAAGAGCCUUGGUUUUUUU | -1.05
GACCAAUCUGCCCUCAGAGCUCGAGAACAUCUUCGGAUGCAGAGGAGCCAGGCUUCGGUGGCGCGAUAGCGCCAACGUCCUCAACCUCCAAUGGAUCCCACCACAUGAUGAUGCUUGAAGAGCCUUGGUUUUUUG | -3.03
GACCAAUCUGCCCUCAGAGCUCGAGAACAUCUUCGGAUGCAGAGGAGUCGGGCUUCGGUGACGCGAUAGCGCCAACGUCCUCAACCUCUAAUGCAUCCCACCACAUGAUGAUGCCUGAAGAGCCUUGGUUUUUUG | -1.81
GACCAAUCUGCCCUCAGAGCUCGAGAACAUCUUCGGAUGCAGAGGAGUCAGGCUUCGGUGGCGCGAUAGCGCCAACGUCCUCUAUCUCCAAUGCAUCCCACCACAUGAUGAUGCCUGAAGAGCCUUGGUUUUUUG | -0.796
